Experimental data taken from US7063946B2, “Methods, reagents, kits and apparatus for protein function analysis” (Meso Scale Technologies, LLC., priority 2001, dated 2006).

B1: 4537393: IMAGE clone protein: TTK protein kinase (protein, UniProt P33981 1-857, looked up)
Dual specificity protein …: MESEDLSGRELTIDSIMNKVRDIKNKFKNEDLTDELSLNKISADTTDNSGTVNQIMMMANNPEDWLSLLLKLEKNSVPLSDALLNKLIGRYSQAIEALPPDKYGQNESFARIQVRFAELKAIQEPDDARDYFQMARANCKKFAFVHISFAQFELSQGNVKKSKQLLQKAVERGAVPLEMLEIALRNLNLQKKQLLSEEEKKNLSASTVLTAQESFSGSLGHLQNRNNSCDSRGQTTKARFLYGENMPPQDAEIGYRNSLRQTNKTKQSCPFGRVPVNLLNSPDCDVKTDDSVVPCFMKRQTSRSECRDLVVPGSKPSGNDSCELRNLKSVQNSHFKEPLVSDEKSSELIITDSITLKNKTESSLLAKLEETKEYQEPEVPESNQKQWQSKRKSECINQNPAASSNHWQIPELARKVNTEQKHTTFEQPVFSVSKQSPPISTSKWFDPKSICKTPSSNTLDDYMSCFRTPVVKNDFPPACQLSTPYGQPACFQQQQHQILATPLQNLQVLASSSANECISVKGRIYSILKQIGSGGSSKVFQVLNEKKQIYAIKYVNLEEADNQTLDSYRNEIAYLNKLQQHSDKIIRLYDYEITDQYIYMVMECGNIDLNSWLKKKKSIDPWERKSYWKNMLEAVHTIHQHGIVHSDLKPANFLIVDGMLKLIDFGIANQMQPDTTSVVKDSQVGTVNYMPPEAIKDMSSSRENGKSKSKISPKSDVWSLGCILYYMTYGKTPFQQIINQISKLHAIIDPNHEIEFPDIPEKDLQDVLKCCLKRDPKQRISIPELLAHPYVQIQTHPVNQMAKGTTEEMKYVLGQLVGLNSPNSILKAAKTLYEHYSGGESHNSSSSKTFEKKRGKK
B2: 4778819: IMAGE clone protein: Hck, hemopoietic cell kinase (protein, UniProt P08103 2-524, looked up)
Tyrosine-protein kinase HCK: GGRSSCEDPGCPRSEGRAPRMGCVKSRFLRDGSKASKTEPSANQKGPVYVPDPTSSSKLGPNNSNSMPPGFVEGSEDTIVVALYDYEAIHREDLSFQKGDQMVVLEEAGEWWKARSLATKKEGYIPSNYVARVNSLETEEWFFKGISRKDAERHLLAPGNMLGSFMIRDSETTKGSYSLSVRDFDPQHGDTVKHYKIRTLDSGGFYISPRSTFSSLQELVLHYKKGKDGLCQKLSVPCVSPKPQKPWEKDAWEIPRESLQMEKKLGAGQFGEVWMATYNKHTKVAVKTMKPGSMSVEAFLAEANLMKSLQHDKLVKLHAVVSQEPIFIVTEFMAKGSLLDFLKSEEGSKQPLPKLIDFSAQISEGMAFIEQRNYIHRDLRAANILVSASLVCKIADFGLARIIEDNEYTAREGAKFPIKWTAPEAINFGSFTIKSDVWSFGILLMEIVTYGRIPYPGMSNPEVIRALEHGYRMPRPDNCPEELYNIMIRCWKNRPEERPTFEYIQSVLDDFYTATESQYQQQP
B3: 2644960: IMAGE clone protein: Kit, kit oncogene (protein, UniProt P05532 25-979, looked up)
Mast/stem cell growth factor …: SQPSASPGEPSPPSIHPAQSELIVEAGDTLSLTCIDPDFVRWTFKTYFNEMVENKKNEWIQEKAEATRTGTYTCSNSNGLTSSIYVFVRDPAKLFLVGLPLFGKEDSDALVRCPLTDPQVSNYSLIECDGKSLPTDLTFVPNPKAGITIKNVKRAYHRLCVRCAAQRDGTWLHSDKFTLKVRAAIKAIPVVSVPETSHLLKKGDTFTVVCTIKDVSTSVNSMWLKMNPQPQHIAQVKHNSWHRGDFNYERQETLTISSARVDDSGVFMCYANNTFGSANVTTTLKVVEKGFINISPVKNTTVFVTDGENVDLVVEYEAYPKPEHQQWIYMNRTSANKGKDYVKSDNKSNIRYVNQLRLTRLKGTEGGTYTFLVSNSDASASVTFNVYVNTKPEILTYDRLINGMLQCVAEGFPEPTIDWYFCTGAEQRCTTPVSPVDVQVQNVSVSPFGKLVVQSSIDSSVFRHNGTVECKASNDVGKSSAFFNFAFKGNNKEQIQAHTLFTPLLIGFVVAAGAMGIIVMVLTYKYLQKPMYEVQWKVVEEINGNNYVYIDPTQLPYDHKWEFPRNRLSFGKTLGAGAFGKVVEATAYGLIKSDAAMTVAVKMLKPSAHLTEREALMSELKVLSYLGNHMNIVNLLGACTVGGPTLVITEYCCYGDLLNFLRRKRDSFIFSKQEEQAEAALYKNLLHSTEPSCDSSNEYMDMKPGVSYVVPTKTDKRRSARIDSYIERDVTPAIMEDDELALDLDDLLSFSYQVAKGMAFLASKNCIHRDLAARNILLTHGRITKICDFGLARDIRNDSNYVVKGNARLPVKWMAPESIFSCVYTFESDVWSYGIFLWELFSLGSSPYPGMPVDSKFYKMIKEGFRMVSPEHAPAEMYDVMKTCWDADPLKRPTFKQVVQLIEKQISDSTKHIYSNLANCNPNPENPVVVDHSVRVNSVGSSASSTQPLLVHEDA
B4: 2654352: IMAGE clone protein: Fgfr2, fibroblast growth factor receptor 2 (protein, UniProt P21803 22-821, looked up)
Fibroblast growth factor …: RPSFSLVEDTTLEPEEPPTKYQISQPEAYVVAPGESLELQCMLKDAAVISWTKDGVHLGPNNRTVLIGEYLQIKGATPRDSGLYACTAARTVDSETWIFMVNVTDAISSGDDEDDTDSSEDVVSENRSNQRAPYWTNTEKMEKRLHACPAANTVKFRCPAGGNPTSTMRWLKNGKEFKQEHRIGGYKVRNQHWSLIMESVVPSDKGNYTCLVENEYGSINHTYHLDVVERSPHRPILQAGLPANASTVVGGDVEFVCKVYSDAQPHIQWIKHVEKNGSKNGPDGLPYLKVLKAAGVNTTDKEIEVLYIRNVTFEDAGEYTCLAGNSIGISFHSAWLTVLPAPVREKEITASPDYLEIAIYCIGVFLIACMVVTVIFCRMKTTTKKPDFSSQPAVHKLTKRIPLRRQVTVSAESSSSMNSNTPLVRITTRLSSTADTPMLAGVSEYELPEDPKWEFPRDKLTLGKPLGEGCFGQVVMAEAVGIDKDKPKEAVTVAVKMLKDDATEKDLSDLVSEMEMMKMIGKHKNIINLLGACTQDGPLYVIVEYASKGNLREYLRARRPPGMEYSYDINRVPEEQMTFKDLVSCTYQLARGMEYLASQKCIHRDLAARNVLVTENNVMKIADFGLARDINNIDYYKKTTNGRLPVKWMAPEALFDRVYTHQSDVWSFGVLMWEIFTLGGSPYPGIPVEELFKLLKEGHRMDKPTNCTNELYMMMRDCWHAVPSQRPTFKQLVEDLDRILTLTTNEEYLDLTQPLEQYSPSYPDTSSSCSSGDDSVFSPDPMPYEPCLPQYPHINGSVKT
B5: 3482498: IMAGE clone protein: Tek, endothelial-specific receptor tyrosine kinase (protein, UniProt Q02858 23-1122, looked up)
Angiopoietin-1 receptor: AMDLILINSLPLVSDAETSLTCIASGWHPHEPITIGRDFEALMNQHQDPLEVTQDVTREWAKKVVWKREKASKINGAYFCEGRVRGQAIRIRTMKMRQQASFLPATLTMTVDRGDNVNISFKKVLIKEEDAVIYKNGSFIHSVPRHEVPDILEVHLPHAQPQDAGVYSARYIGGNLFTSAFTRLIVRRCEAQKWGPDCSRPCTTCKNNGVCHEDTGECICPPGFMGRTCEKACEPHTFGRTCKERCSGPEGCKSYVFCLPDPYGCSCATGWRGLQCNEACPSGYYGPDCKLRCHCTNEEICDRFQGCLCSQGWQGLQCEKEGRPRMTPQIEDLPDHIEVNSGKFNPICKASGWPLPTSEEMTLVKPDGTVLQPNDFNYTDRFSVAIFTVNRVLPPDSGVWVCSVNTVAGMVEKPFNISVKVLPEPLHAPNVIDTGHNFAIINISSEPYFGDGPIKSKKLFYKPVNQAWKYIEVTNEIFTLNYLEPRTDYELCVQLARPGEGGEGHPGPVRRFTTASIGLPPPRGLSLLPKSQTALNLTWQPIFTNSEDEFYVEVERRSLQTTSDQQNIKVPGNLTSVLLSNLVPREQYTVRARVNTKAQGEWSEELRAWTLSDILPPQPENIKISNITDSTAMVSWTIVDGYSISSIIIRYKVQGKNEDQHIDVKIKNATVTQYQLKGLEPETTYHVDIFAENNIGSSNPAFSHELRTLPHSPASADLGGGKMLLIAILGSAGMTCITVLLAFLIMLQLKRANVQRRMAQAFQNREEPAVQFNSGTLALNRKAKNNPDPTIYPVLDWNDIKFQDVIGEGNFGQVLKARIKKDGLRMDAAIKRMKEYASKDDHRDFAGELEVLCKLGHHPNIINLLGACEHRGYLYLAIEYAPHGNLLDFLRKSRVLETDPAFAIANSTASTLSSQQLLHFAADVARGMDYLSQKQFIHRDLAARNILVGENYIAKIADFGLSRGQEVYVKKTMGRLPVRWMAIESLNYSVYTTNSDVWSYGVLLWEIVSLGGTPYCGMTCAELYEKLPQGYRLEKPLNCDDEVYDLMRQCWREKPYERPSFAQILVSLNRMLEERKTYVNTTLYEKFTYAGIDCSAEEAA

Legend:
pEY = test: In vitro kinase library screen: activity towards pEY; assay type: biochemical; conditions: 5 ul of expressed protein
Method in brief: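 Kinases made by in vitro transcription/translation, immobilised on streptavidin/avidin plates and washed with Tris/Triton and high-salt buffers. Incubated overnight at room temperature with 5 nM pEY, 100 µM ATP, Mg2+/Mn2+ and vanadate at pH 7.4. Phospho-pEY captured with biotinylated PY20 and detected by Sulfo-TAG anti-phosphotyrosine ECL.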

[1] = test system: autophosphorylation (phosphotyrosine); test: In vitro kinase library screen: autophosphorylation; assay type: biochemical
Method in brief: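 Biotinylated SYK and EphA7 from in vitro transcription/translation, immobilized on streptavidin/avidin plates; autophosphorylation overnight at room temperature with 5 mM MgCl2, 5 mM MnCl2, 100 μM ATP, pH 7.4. Phosphotyrosine detected by Sulfo-TAG anti-phosphotyrosine (45 min) and ECL read-out.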

Molecule	HTS signal (pEY)	ECL signal [1]
B1	1,711	50,479
B2	958,415	1,198,625
B3	9,164	88,966
B4	296,481	180,059
B5	10,287	84,706
